Test results from the supplement of paper PMC5998384.

Assays:
[1] = system: HeLa Kyoto; test: melting temperature (median over replicates), in situ; higher = more thermally stable
[2] = system: HeLa Kyoto; test: solubility change mitosis vs G1/S (difference of NP-40 vs SDS log2 ratios) (log2 ratio difference); higher = more soluble in mitosis
[3] = system: HeLa Kyoto; test: thermal stability score vs G1/S (z-score of summed log2 fold changes over temperatures); higher = more thermally stable than in G1/S
[4] = system: HeLa Kyoto; test: solubility in G1/S (NP-40 vs SDS abundance) (log2 ratio); higher = more soluble; details: cell cycle stage: G1/S
[5] = cell cycle stage: early G1 (4.5 h after nocodazole release)
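Throughout, for melting temperature (median over replicates), in situ: HeLa Kyoto cells synchronized by double thymidine or nocodazole block, proteins quantified by TMT10plex mass spectrometry, three independent biological replicates.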
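Throughout, for solubility change mitosis vs G1/S (difference of NP-40 vs SDS log2 ratios): synchronized HeLa Kyoto cells (double thymidine block for G1/S, nocodazole release for mitosis), protein amounts in NP-40 versus SDS lysates quantified by mass spectrometry, three biological replicates.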
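Throughout, for solubility in G1/S (NP-40 vs SDS abundance): HeLa Kyoto cells arrested at G1/S by double thymidine block, proteins quantified by TMT10plex mass spectrometry in mild NP-40 versus SDS extracts, three biological replicates.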
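Throughout, for thermal stability score vs G1/S (z-score of summed log2 fold changes over temperatures): synchronized HeLa Kyoto cells, proteins quantified by TMT10plex mass spectrometry, three biological replicates, mitosis taken 0.5 h after nocodazole release, G1/S directly after double thymidine block.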

TROVE2, sequence (chain, as listed by the source): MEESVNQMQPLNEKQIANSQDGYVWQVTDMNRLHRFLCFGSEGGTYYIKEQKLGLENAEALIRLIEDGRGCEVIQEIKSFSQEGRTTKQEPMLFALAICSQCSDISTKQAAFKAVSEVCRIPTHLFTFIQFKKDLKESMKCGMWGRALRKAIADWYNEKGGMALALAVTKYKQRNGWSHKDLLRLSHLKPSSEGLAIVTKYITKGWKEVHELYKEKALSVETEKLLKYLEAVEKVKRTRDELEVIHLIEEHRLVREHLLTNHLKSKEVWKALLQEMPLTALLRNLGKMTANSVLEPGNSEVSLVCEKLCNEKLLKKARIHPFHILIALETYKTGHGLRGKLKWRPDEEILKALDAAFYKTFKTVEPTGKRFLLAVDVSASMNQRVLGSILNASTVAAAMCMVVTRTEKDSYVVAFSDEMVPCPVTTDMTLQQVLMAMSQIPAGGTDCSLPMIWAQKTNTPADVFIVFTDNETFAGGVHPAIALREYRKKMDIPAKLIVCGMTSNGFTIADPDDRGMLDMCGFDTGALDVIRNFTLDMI

Row | Substance | melting temperature ([1]; cell cycle stage: G1/S) [°C] | melting temperature ([1]; cell cycle stage: mitosis) [°C] | solubility change mitosis (log2) [2] | thermal stability score [3, 5] | thermal stability score ([3]; cell cycle stage: mitosis) | solubility in G1/S (log2) [4]
1 | MLTLQTWLVQALFIFLTTESTGELLDPCGYISPESPVVQLHSNFTAVCVLKEKCMDYFHVNANYIVWKTNHFTIPKEQYTIINRTASSVTFTDIASLNIQLTCNILTFGQLEQNVYGITIISGLPPEKPKNLSCIVNEGKKMRCEWDGGRETHLETNFTLKSEWATHKFADCKAKRDTPTSCTVDYSTVYFVNIEVWVEAENALGKVTSDHINFDPVYKVKPNPPHNLSVINSEELSSILKLTWTNPSIKSVIILKYNIQYRTKDASTWSQIPPEDTASTRSSFTVQDLKPFTEYVFRIRCMKEDGKGYWSDWSEEASGITYEDRPSKAPSFWYKIDPSHTQGYRTVQLVWKTLPPFEANGKILDYEVTLTRWKSHLQNYTVNATKLTVNLTNDRYLATLTVRNLVGKSDAAVLTIPACDFQATHPVMDLKAFPKDNMLWVEWTTPRESVKKYILEWCVLSDKAPCITDWQQEDGTVHRTYLRGNLAESKCYLITVTPVYADGPGSPESIKAYLKQAPPSKGPTVRTKKVGKNEAVLEWDQLPVDVQNGFIRNYTIFYRTIIGNETAVNVDSSHTEYTLSSLTSDTLYMVRMAAYTDEGGKDGPEFTFTTPKFAQGEIEAIVVPVCLAFLLTTLLGVLFCFNKRDLIKKHIWPNVPDPSKSHIAQWSPHTPPRHNFNSKDQMYSDGNFTDVSVVEIEANDKKPFPEDLKSLDLFKKEKINTEGHSSGIGGSSCMSSSRPSISSSDENESSQNTSSTVQYSTVVHSGYRHQVPSVQVFSRSESTQPLLDSEERPEDLQLVDHVDGGDGILPRQQYFKQNCSQHESSPDISHFERSKQVSSVNEEDFVRLKQQISDHISQSCGSGQMKMFQEVSAADAFGPGTEGQVERFETVGMEAATDEGMPKSYLPQTVRQGGYMPQ [IL6ST] | 53.9 | 56.2 | 0.0736 | -2.55 | -3.18 | 0.0822
2 | MASGAGGVGGGGGGKIRTRRCHQGPIKPYQQGRQQHQGILSRVTESVKNIVPGWLQRYFNKNEDVCSCSTDTSEVPRWPENKEDHLVYADEESSNITDGRITPEPAVSNTEEPSTTSTASNYPDVLTRPSLHRSHLNFSMLESPALHCQPSTSSAFPIGSSGFSLVKEIKDSTSQHDDDNISTTSGFSSRASDKDITVSKNTSLPPLWSPEAERSHSLSQHTATSSKKPAFNLSAFGTLSPSLGNSSILKTSQLGDSPFYPGKTTYGGAAAAVRQSKLRNTPYQAPVRRQMKAKQLSAQSYGVTSSTARRILQSLEKMSSPLADAKRIPSIVSSPLNSPLDRSGIDITDFQAKREKVDSQYPPVQRLMTPKPVSIATNRSVYFKPSLTPSGEFRKTNQRIDNKCSTGYEKNMTPGQNREQRESGFSYPNFSLPAANGLSSGVGGGGGKMRRERTRFVASKPLEEEEMEVPVLPKISLPITSSSLPTFNFSSPEITTSSPSPINSSQALTNKVQMTSPSSTGSPMFKFSSPIVKSTEANVLPPSSIGFTFSVPVAKTAELSGSSSTLEPIISSSAHHVTTVNSTNCKKTPPEDCEGPFRPAEILKEGSVLDILKSPGFASPKIDSVAAQPTATSPVVYTRPAISSFSSSGIGFGESLKAGSSWQCDTCLLQNKVTDNKCIACQAAKLSPRDTAKQTGIETPNKSGKTTLSASGTGFGDKFKPVIGTWDCDTCLVQNKPEAIKCVACETPKPGTCVKRALTLTVVSESAETMTASSSSCTVTTGTLGFGDKFKRPIGSWECSVCCVSNNAEDNKCVSCMSEKPGSSVPASSSSTVPVSLPSGGSLGLEKFKKPEGSWDCELCLVQNKADSTKCLACESAKPGTKSGFKGFDTSSSSSNSAASSSFKFGVSSSSSGPSQTLTSTGNFKFGDQGGFKIGVSSDSGSINPMSEGFKFSKPIGDFKFGVSSESKPEEVKKDSKNDNFKFGLSSGLSNPVSLTPFQFGVSNLGQEEKKEELPKSSSAGFSFGTGVINSTPAPANTIVTSENKSSFNLGTIETKSASVAPFTCKTSEAKKEEMPATKGGFSFGNVEPASLPSASVFVLGRTEEKQQEPVTSTSLVFGKKADNEEPKCQPVFSFGNSEQTKDENSSKSTFSFSMTKPSEKESEQPAKATFAFGAQTSTTADQGAAKPVFSFLNNSSSSSSTPATSAGGGIFGSSTSSSNPPVATFVFGQSSNPVSSSAFGNTAESSTSQSLLFSQDSKLATTSSTGTAVTPFVFGPGASSNNTTTSGFGFGATTTSSSAGSSFVFGTGPSAPSASPAFGANQTPTFGQSQGASQPNPPGFGSISSSTALFPTGSQPAPPTFGTVSSSSQPPVFGQQPSQSAFGSGTTPNSSSAFQFGSSTTNFNFTNNSPSGVFTFGANSSTPAASAQPSGSGGFPFNQSPAAFTVGSNGKNVFSSSGTSFSGRKIKTAVRRRK [NUP153] | 52.8 | 52.6 | 0.507 | -5.41 | -3.58 | -0.682
3 | MAAPGSCALWSYCGRGWSRAMRGCQLLGLRSSWPGDLLSARLLSQEKRAAETHFGFETVSEEEKGGKVYQVFESVAKKYDVMNDMMSLGIHRVWKDLLLWKMHPLPGTQLLDVAGGTGDIAFRFLNYVQSQHQRKQKRQLRAQQNLSWEEIAKEYQNEEDSLGGSRVVVCDINKEMLKVGKQKALAQGYRAGLAWVLGDAEELPFDDDKFDIYTIAFGIRNVTHIDQALQEAHRVLKPGGRFLCLEFSQVNNPLISRLYDLYSFQVIPVLGEVIAGDWKSYQYLVESIRRFPSQEEFKDMIEDAGFHKVTYESLTSGIVAIHSGFKL [COQ5] | 54.4 | 56.3 | 0.0212 | -1.07 | -0.586 | -0.0892
4 | MLRCLYHWHRPVLNRRWSRLCLPKQYLFTMKLQSPEFQSLFTEGLKSLTELFVKENHELRIAGGAVRDLLNGVKPQDIDFATTATPTQMKEMFQSAGIRMINNRGEKHGTITARLHEENFEITTLRIDVTTDGRHAEVEFTTDWQKDAERRDLTINSMFLGFDGTLFDYFNGYEDLKNKKVRFVGHAKQRIQEDYLRILRYFRFYGRIVDKPGDHDPETLEAIAENAKGLAGISGERIWVELKKILVGNHVNHLIHLIYDLDVAPYIGLPANASLEEFDKVSKNVDGFSPKPVTLLASLFKVQDDVTKLDLRLKIAKEEKNLGLFIVKNRKDLIKATDSSDPLKPYQDFIIDSREPDATTRVCELLKYQGEHCLLKEMQQWSIPPFPVSGHDIRKVGISSGKEIGALLQQLREQWKKSGYQMEKDELLSYIKKT [TRNT1] | 50.9 | 50.2 | -0.109 | 1.75 | 1.59 | 0.146
5 | TROVE2 | 57.5 | 54.7 | -0.0914 | -4.29 | -4.23 | -0.149
6 | MAASSISSPWGKHVFKAILMVLVALILLHSALAQSRRDFAPPGQQKREAPVDVLTQIGRSVRGTLDAWIGPETMHLVSESSSQVLWAISSAISVAFFALSGIAAQLLNALGLAGDYLAQGLKLSPGQVQTFLLWGAGALVVYWLLSLLLGLVLALLGRILWGLKLVIFLAGFVALMRSVPDPSTRALLLLALLILYALLSRLTGSRASGAQLEAKVRGLERQVEELRWRQRRAAKGARSVEEE [TMEM109] | 54.6 | 53.8 | -0.14 | -3.9 | -4.03 | -0.0444
7 | MDSDDEMVEEAVEGHLDDDGLPHGFCTVTYSSTDRFEGNFVHGEKNGRGKFFFFDGSTLEGYYVDDALQGQGVYTYEDGGVLQGTYVDGELNGPAQEYDTDGRLIFKGQYKDNIRHGVCWIYYPDGGSLVGEVNEDGEMTGEKIAYVYPDERTALYGKFIDGEMIEGKLATLMSTEEGRPHFELMPGNSVYHFDKSTSSCISTNALLPDPYESERVYVAESLISSAGEGLFSKVAVGPNTVMSFYNGVRITHQEVDSRDWALNGNTLSLDEETVIDVPEPYNHVSKYCASLGHKANHSFTPNCIYDMFVHPRFGPIKCIRTLRAVEADEELTVAYGYDHSPPGKSGPEAPEWYQVELKAFQATQQK [SETD7] | 48.7 | 50.5 | -0.119 | 1.42 | 2.54 | -0.127
8 | MEMTEMTGVSLKRGALVVEDNDSGVPVEETKKQKLSECSLTKGQDGLQNDFLSISEDVPRPPDTVSTGKGGKNSEAQLEDEEEEEEDGLSEECEEEESESFADMMKHGLTEADVGITKFVSSHQGFSGILKERYSDFVVHEIGKDGRISHLNDLSIPVDEEDPSEDIFTVLTAEEKQRLEELQLFKNKETSVAIEVIEDTKEKRTIIHQAIKSLFPGLETKTEDREGKKYIVAYHAAGKKALANPRKHSWPKSRGSYCHFVLYKENKDTMDAINVLSKYLRVKPNIFSYMGTKDKRAITVQEIAVLKITAQRLAHLNKCLMNFKLGNFSYQKNPLKLGELQGNHFTVVLRNITGTDDQVQQAMNSLKEIGFINYYGMQRFGTTAVPTYQVGRAILQNSWTEVMDLILKPRSGAEKGYLVKCREEWAKTKDPTAALRKLPVKRCVEGQLLRGLSKYGMKNIVSAFGIIPRNNRLMYIHSYQSYVWNNMVSKRIEDYGLKPVPGDLVLKGATATYIEEDDVNNYSIHDVVMPLPGFDVIYPKHKIQEAYREMLTADNLDIDNMRHKIRDYSLSGAYRKIIIRPQNVSWEVVAYDDPKIPLFNTDVDNLEGKTPPVFASEGKYRALKMDFSLPPSTYATMAIREVLKMDTSIKNQTQLNTTWLR [PUS7] | 52.3 | 52.2 | -0.141 | 0.213 | 0.4 | 0.055
9 | MAVKVQTTKRGDPHELRNIFLQYASTEVDGERYMTPEDFVQRYLGLYNDPNSNPKIVQLLAGVADQTKDGLISYQEFLAFESVLCAPDSMFIVAFQLFDKSGNGEVTFENVKEIFGQTIIHHHIPFNWDCEFIRLHFGHNRKKHLNYTEFTQFLQELQLEHARQAFALKDKSKSGMISGLDFSDIMVTIRSHMLTPFVEENLVSAAGGSISHQVSFSYFNAFNSLLNNMELVRKIYSTLAGTRKDVEVTKEEFAQSAIRYGQVTPLEIDILYQLADLYNASGRLTLADIERIAPLAEGALPYNLAELQRQQSPGLGRPIWLQIAESAYRFTLGSVAGAVGATAVYPIDLVKTRMQNQRGSGSVVGELMYKNSFDCFKKVLRYEGFFGLYRGLIPQLIGVAPEKAIKLTVNDFVRDKFTRRDGSVPLPAEVLAGGCAGGSQVIFTNPLEIVKIRLQVAGEITTGPRVSALNVLRDLGIFGLYKGAKACFLRDIPFSAIYFPVYAHCKLLLADENGHVGGLNLLAAGAMAGVPAASLVTPADVIKTRLQVAARAGQTTYSGVIDCFRKILREEGPSAFWKGTAARVFRSSPQFGVTLVTYELLQRWFYIDFGGLKPAGSEPTPKSRIADLPPANPDHIGGYRLATATFAGIENKFGLYLPKFKSPSVAVVQPKAAVAATQ [SLC25A12] | 56 | 57.1 | -0.128 | -0.889 | -1.22 | -0.00588
10 | MKLWVSALLMAWFGVLSCVQAEFFTSIGHMTDLIYAEKELVQSLKEYILVEEAKLSKIKSWANKMEALTSKSAADAEGYLAHPVNAYKLVKRLNTDWPALEDLVLQDSAAGFIANLSVQRQFFPTDEDEIGAAKALMRLQDTYRLDPGTISRGELPGTKYQAMLSVDDCFGMGRSAYNEGDYYHTVLWMEQVLKQLDAGEEATTTKSQVLDYLSYAVFQLGDLHRALELTRRLLSLDPSHERAGGNLRYFEQLLEEEREKTLTNQTEAELATPEGIYERPVDYLPERDVYESLCRGEGVKLTPRRQKRLFCRYHHGNRAPQLLIAPFKEEDEWDSPHIVRYYDVMSDEEIERIKEIAKPKLARATVRDPKTGVLTVASYRVSKSSWLEEDDDPVVARVNRRMQHITGLTVKTAELLQVANYGVGGQYEPHFDFSRNDERDTFKHLGTGNRVATFLNYMSDVEAGGATVFPDLGAAIWPKKGTAVFWYNLLRSGEGDYRTRHAACPVLVGCKWVSNKWFHERGQEFLRPCGSTEVD [P4HA2] | 54.2 | 54.1 | -0.0711 | 2.83 | 4.61 | 0.0555
